Measurements: paper PMC2628428 (Molecular Microbiology, 2008)

Molecular target: the molecule itself
Assay: cross-linking

B1: CetB (natural protein, UniProt Q0P967 1-165, looked up)
chain: MSREIFLQEDSLITSKTDLKGKIVYANDDFLKYAGYTMGEVLNKPHNIVRHEEMPKTVFKYLWDYMKEGKEIFAYVKNKTKDNNYYWVFANVTPSIDVNNNIIGYYSVRRMPNKSAISTIESLYSDLLRAEQQQGLNKGVEMLKNFCKDADKTYNELIFSLQEAK
stoichiometry N: 2
